Entries after “also recorded” stand apart in the source; their conditions may differ.
System: HUVEC and fibroblasts
Assay: BrdU ELISA cell proliferation cytotoxicity assay
Type: cell-based, human
Settings: HUVEC and fibroblast monocultures; 24 hours
Experimental: In order to determine whether the fibrin E analogue peptides WTM33, WTM34, WTM35, WTM36, and WTM37 are cytotoxic when applied to the HUVEC and fibroblasts used in the Angiosys™ angiogenesis assay, these reagents were examined in two different cytotoxicity assays. To simplify performance of these assays and discriminate between fibroblasts and HUVEC, cells were grown in monocultures rather than together and then treated with the experimental reagents as described below.
Cytotoxicity of the fibrin E peptide analogues was also determined by examining cell proliferation, using a commercial BrdU ELISA (Roche Molecular Biochemicals) performed according to the manufacturer's instructions. This assay quantifies DNA synthesis as a measure of cellular proliferation, as stimulation or inhibition of cell replication will require a concomitant change in the rate of DNA synthesis. Measurement of DNA synthesis is achieved by incubating proliferating cells in medium in which thymidine has been replaced with the pyrimidine analogue 5-bromo-2′-deoxyuridine (BrdU). Once incorporated into the cellular DNA, BrdU is measured by immunoassay. Briefly, HUVEC and fibroblasts were seeded as monocultures into 96 well plates at a density of 5×10^3 cells per well, to a final volume of 100 μl per well in endothelial cell culture medium. At the end of an initial culture period of 72 hours under standard conditions, while the cells were still proliferating, fibrin E analogue peptides were added to a range of final concentrations, as shown in the FIG. 8. Each treatment concentration of each peptide was administered to four replicate wells. Control cells received standard medium without test compounds. The cells were incubated for 24 hours with the test compounds, before 10 μl of stock BrdU solution (100 μM) was added to give a final concentration of 10 μM BrdU, and the cells were incubated for a further 2 hours. The test medium was then removed from the cells and replaced with 200 μl per well of Fixing/Denaturing solution, which was incubated on the cells for a further 30 minutes at room temperature. This was then replaced with 100 μl per well anti-BrdU-POD (mouse monoclonal clone BMG 6H8, Fab fragments conjugated to peroxidase) prepared as directed, which was left on the cells for a further 90 minutes at room temperature. The antibody conjugate was then removed from the wells by rinsing three times in 200 μl per well of washing buffer (PBS) before 100 μl well substrate solution (tetramethyl-benzidine) was added and incubated at room temperature until colour development was sufficient for photometric detection (approximately 15 minutes). Absorbance at 370 nm was measured on a multi-well plate ELISA plate reader (Dynatech), with a reference wavelength of 492 nm. Mean absorbance values from each group of four wells were calculated and expressed as a percentage±standard deviation of the mean value obtained from control wells incubated in the absence of fibrin E analogue peptide.

## LHADPDLGVLCPTGC [WTM34]
  cytotoxicity / cell proliferation, BrdU assay: not cytotoxic; also recorded: no toxicity

Reference: patent publication US20040132969A1, “Antibodies, peptides, analogs and uses thereof” (priority 2000, published 2004)
